The target in one assay is αVβ6-WT. Nature of the assay: Fluorescence polarization saturation binding, αVβ6-WT. Particulars: 2, 5 and 10 nM probe, repeat1 and repeat2, 2 replicates each. The source says:
As in statistical models for determining p values, the fit assumes that errors are independent and normally distributed. The reported fit minimizes the sum of the squared errors. […] Source data for a, b are provided as a Source Data file. c Representative negative stain class averages of mutant or WT integrin headpieces alone (upper panels) or complexed with pro-TGF-β1. Representative 2:1 pro-TGF-β1:integrin class averages are shown.
(In general: In fluorescence polarisation assays a small probe gives low polarisation when free and higher when bound to something large.)

In a further assay the target is T1, αVβ8-WT headpiece (Homo sapiens, UniProt P06756+P26012, M430C/V301C).
T1 construct: residues 1–594 of the αV-subunit and 1–456 of the β8-subunit; made in house; host or cells: HEK293S GntI−/− cells
The conditions noted are these: Mn2+; negative stain EM; cited from earlier work.

For the next assay, the target named is T2, αVβ8-mut6 headpiece (Homo sapiens, UniProt P06756+P26012, K165T/M430C/N161D/N162D/V301C).
T2 construct: residues 1–594 of the αV-subunit and 1–456 of the β8-subunit; made in house; host or cells: Expi293 cells (transient)
Nature of the assay: Negative stain EM headpiece opening, αVβ8-mut6. Particulars: 1 mM Mn2+/0.2 mM Ca2+. From the text: Fig. 7 Regulation of ligand-binding affinity by atypical and typical residues in αVβ8 and αVβ6. a Mutations corresponding to sequence exchanges between αVβ8 (black) and αVβ6 (red) and effect on affinity for FITC-labeled TGF-β3 ligand peptide (GRGDLGRLKK) in presence of Mg^2+ and Mn^2+. […] As in statistical models for determining p values, the fit assumes that errors are independent and normally distributed. The reported fit minimizes the sum of the squared errors. […] Source data for a, b are provided as a Source Data file. c Representative negative stain class averages of mutant or WT integrin headpieces alone (upper panels) or complexed with pro-TGF-β1. Representative 2:1 pro-TGF-β1:integrin class averages are shown. The WT integrin class averages shown for comparison are previously published. d, e Residues in regions of βI domain allostery with unusual properties in αVβ8 (d) are compared to counterparts in αVβ6 (e). […] Mn^2+: 0.37 [0.18, 0.55] […]
αVβ8-mut3 or αVβ8-mut6 (15 μg) were mixed with pro-TGF-β1 at molar ratio 1.5:1 in 50 μl of HBS buffer containing 1 mM Mn^2+/0.2 mM Ca^2+ for 30 min and injected in a 24 ml Superdex 75 gel filtration column pre-equilibrated with HBS buffer (20 mM HEPEs, pH 7.5, 150 mM NaCl, 1 mM Mn^2+/0.2 mM Ca^2+). The 2:2, 2:1 complexes and unbound αVβ8 and pro-TGF-β1 were well separated. […]

A further assay concerns D8/D9 αVβ8. Particulars: D8/D9 αVβ8 compared to WT; cited from earlier work. From the text: Mn^2+ increases affinity of αVβ6 in part by stabilizing headpiece opening. […] Results with αVβ8 were more complex. Substitution of one or both A ...
Assay [1] has as its target T3, pro-TGF-β3 peptide (Homo sapiens).
T3 chain: {FITC-Ahx}-GRGDLGRLKK
The experiment in a line: fluorescence polarization.

The target in assay [2] is T4, pro-TGF-β3 peptide (Homo sapiens).
T4 chain: {FITC-Ahx}-GRGDLGRLKK
Nature of the assay: fluorescence polarization.

“Also recorded” adds a separate entry of the source. Ends that are not written are not given here. * marks the point of attachment. FITC = O=C1OC2(c3ccc(O)cc3Oc3cc(O)ccc32)c2ccc(NC(=S)*)cc21; Ahx = NCCCCCC(=O)O

T2 sequence (P06756 31-624 M430C): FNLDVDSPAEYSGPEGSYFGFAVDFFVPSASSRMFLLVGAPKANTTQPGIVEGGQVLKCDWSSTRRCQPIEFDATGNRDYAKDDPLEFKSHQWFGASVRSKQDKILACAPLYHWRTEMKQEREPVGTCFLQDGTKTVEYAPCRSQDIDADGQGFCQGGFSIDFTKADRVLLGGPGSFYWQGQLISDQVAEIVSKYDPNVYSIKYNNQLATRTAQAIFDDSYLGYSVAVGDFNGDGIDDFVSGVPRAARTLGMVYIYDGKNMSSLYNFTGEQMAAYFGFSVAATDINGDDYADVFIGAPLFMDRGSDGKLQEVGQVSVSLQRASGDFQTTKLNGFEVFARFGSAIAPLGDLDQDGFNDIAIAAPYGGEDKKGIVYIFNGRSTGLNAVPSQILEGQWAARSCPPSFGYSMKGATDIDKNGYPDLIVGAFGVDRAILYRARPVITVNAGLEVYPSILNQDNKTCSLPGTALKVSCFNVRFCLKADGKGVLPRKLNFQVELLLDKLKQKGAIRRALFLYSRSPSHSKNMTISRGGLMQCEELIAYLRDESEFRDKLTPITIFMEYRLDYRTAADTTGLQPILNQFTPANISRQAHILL
T2 sequence (P26012 43-498 N161D/N162D/K165T/V301C): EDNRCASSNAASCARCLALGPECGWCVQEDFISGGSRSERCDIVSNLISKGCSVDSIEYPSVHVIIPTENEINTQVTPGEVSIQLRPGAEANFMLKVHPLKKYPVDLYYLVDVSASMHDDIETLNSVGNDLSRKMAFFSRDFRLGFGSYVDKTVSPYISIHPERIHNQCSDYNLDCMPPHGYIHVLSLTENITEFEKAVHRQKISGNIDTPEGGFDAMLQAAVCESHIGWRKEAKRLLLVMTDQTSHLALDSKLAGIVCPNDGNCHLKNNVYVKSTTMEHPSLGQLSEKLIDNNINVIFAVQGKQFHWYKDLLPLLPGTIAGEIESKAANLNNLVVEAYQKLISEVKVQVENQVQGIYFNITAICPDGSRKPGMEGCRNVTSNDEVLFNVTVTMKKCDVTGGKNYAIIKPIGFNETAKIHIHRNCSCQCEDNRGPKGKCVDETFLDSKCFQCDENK
T1 sequence (P06756 31-624 M430C): as the sequence (P06756 31-624 M430C) above
T1 sequence (P26012 43-498 V301C): as the sequence (P26012 43-498 N161D/N162D/K165T/V301C) above, with D119N, D120N, T123K counted along it

Regarding avb6-WT, the Kd is 2.93 nM on αVβ6-WT (Mg fitting results, Std.Error 1.672e-10, 99% confidence interval 2.49E-09 (lower), 3.37E-09 (upper)) and 0.254 nM at αVβ6-WT (Mn fitting results, Std.Error 5.139e-11, 99% confidence interval 1.21E-10 (lower), 3.88E-10 (upper)). As for “pro-TGF-β1: Human pro-TGFβ-1 with a R249A cleavage site mutation”, the “headpiece conformation when bound to pro-TGF-β1” value in the assay with αVβ8-WT headpiece was “remained closed”; with αVβ8-mut6 headpiece, “remained closed; also recorded: neither mutant showed the open headpiece”. As to “vitronectin: vitronectin, integrin ligand measured in cell binding in a cited study”, the “amount of vitronectin binding to cells” value in the assay with D8/D9 αVβ8 is reported as “decreased binding of D8/D9 αVβ8 compared to WT”.

B1: Integrin αVβ8 headpiece αV 1-594 + β8 1-456 (protein)
chain 1: FNLDVDSPAEYSGPEGSYFGFAVDFFVPSASSRMFLLVGAPKANTTQPGIVEGGQVLKCDWSSTRRCQPIEFDATGNRDYAKDDPLEFKSHQWFGASVRSKQDKILACAPLYHWRTEMKQEREPVGTCFLQDGTKTVEYAPCRSQDIDADGQGFCQGGFSIDFTKADRVLLGGPGSFYWQGQLISDQVAEIVSKYDPNVYSIKYNNQLATRTAQAIFDDSYLGYSVAVGDFNGDGIDDFVSGVPRAARTLGMVYIYDGKNMSSLYNFTGEQMAAYFGFSVAATDINGDDYADVFIGAPLFMDRGSDGKLQEVGQVSVSLQRASGDFQTTKLNGFEVFARFGSAIAPLGDLDQDGFNDIAIAAPYGGEDKKGIVYIFNGRSTGLNAVPSQILEGQWAARSMPPSFGYSMKGATDIDKNGYPDLIVGAFGVDRAILYRARPVITVNAGLEVYPSILNQDNKTCSLPGTALKVSCFNVRFCLKADGKGVLPRKLNFQVELLLDKLKQKGAIRRALFLYSRSPSHSKNMTISRGGLMQCEELIAYLRDESEFRDKLTPITIFMEYRLDYRTAADTTGLQPILNQFTPANISRQAHILLDCGEDNVCKPKLEVSVDSDQKKIYIGDDNPLTLIVKAQNQGEGAYEAELIVSIPLQADFIGVVRNNEALARLSCAFKTENQTRQVVCDLGNPMKAGTQLLAGLRFSVHQQSEMDTSVKFDLQIQSSNLFDKVSPVVSHKVDLAVLAAVEIRGVSSPDHVFLPIPNWEHKENPETEEDVGPVVQHIYELRNNGPSSFSKAMLHLQWPYKYNNNTLLYILHYDIDGPMNCTSDMEINPLRIKISSLQTTEKNDTVAGQGERDHLITKRDLALSEGDIHTLGCGVAQCLKIVCQVGRLDRGKSAILYVKSLLWTETFMNKENQNHSYSLKSSASFNVIEFPYKNLPIEDITNSTLVTTNVTWGIQPAPMPV
chain 2: EDNRCASSNAASCARCLALGPECGWCVQEDFISGGSRSERCDIVSNLISKGCSVDSIEYPSVHVIIPTENEINTQVTPGEVSIQLRPGAEANFMLKVHPLKKYPVDLYYLVDVSASMHNNIEKLNSVGNDLSRKMAFFSRDFRLGFGSYVDKTVSPYISIHPERIHNQCSDYNLDCMPPHGYIHVLSLTENITEFEKAVHRQKISGNIDTPEGGFDAMLQAAVCESHIGWRKEAKRLLLVMTDQTSHLALDSKLAGIVVPNDGNCHLKNNVYVKSTTMEHPSLGQLSEKLIDNNINVIFAVQGKQFHWYKDLLPLLPGTIAGEIESKAANLNNLVVEAYQKLISEVKVQVENQVQGIYFNITAICPDGSRKPGMEGCRNVTSNDEVLFNVTVTMKKCDVTGGKNYAIIKPIGFNETAKIHIHRNCSCQCEDNRGPKGKCVDETFLDSKCFQCDENKCHFDEDQFSSESCKSHKDQPVCSGRGVCVCGKCSCHKIKLGKVYGKYCEKDDFSCPYHHGNLCAGHGECEAGRCQCFSGWEGDRCQCPSAAAQHCVNSKGQVCSGRGTCVCGRCECTDPRSIGRFCEHCPTCYTACKENWNCMQCLHPHNLSQAILDQCKTSCALMEQQHYVDQTSECFSSPSYLR
Regarding B1, the Kd with pro-TGF-β3 peptide [1] worked out at 30 nM.

B2: Integrin αVβ6 headpiece headpiece (protein)
chain 1: FNLDVDSPAEYSGPEGSYFGFAVDFFVPSASSRMFLLVGAPKANTTQPGIVEGGQVLKCDWSSTRRCQPIEFDATGNRDYAKDDPLEFKSHQWFGASVRSKQDKILACAPLYHWRTEMKQEREPVGTCFLQDGTKTVEYAPCRSQDIDADGQGFCQGGFSIDFTKADRVLLGGPGSFYWQGQLISDQVAEIVSKYDPNVYSIKYNNQLATRTAQAIFDDSYLGYSVAVGDFNGDGIDDFVSGVPRAARTLGMVYIYDGKNMSSLYNFTGEQMAAYFGFSVAATDINGDDYADVFIGAPLFMDRGSDGKLQEVGQVSVSLQRASGDFQTTKLNGFEVFARFGSAIAPLGDLDQDGFNDIAIAAPYGGEDKKGIVYIFNGRSTGLNAVPSQILEGQWAARSMPPSFGYSMKGATDIDKNGYPDLIVGAFGVDRAILYRARPVITVNAGLEVYPSILNQDNKTCSLPGTALKVSCFNVRFCLKADGKGVLPRKLNFQVELLLDKLKQKGAIRRALFLYSRSPSHSKNMTISRGGLMQCEELIAYLRDESEFRDKLTPITIFMEYRLDYRTAADTTGLQPILNQFTPANISRQAHILLDCGEDNVCKPKLEVSVDSDQKKIYIGDDNPLTLIVKAQNQGEGAYEAELIVSIPLQADFIGVVRNNEALARLSCAFKTENQTRQVVCDLGNPMKAGTQLLAGLRFSVHQQSEMDTSVKFDLQIQSSNLFDKVSPVVSHKVDLAVLAAVEIRGVSSPDHVFLPIPNWEHKENPETEEDVGPVVQHIYELRNNGPSSFSKAMLHLQWPYKYNNNTLLYILHYDIDGPMNCTSDMEINPLRIKISSLQTTEKNDTVAGQGERDHLITKRDLALSEGDIHTLGCGVAQCLKIVCQVGRLDRGKSAILYVKSLLWTETFMNKENQNHSYSLKSSASFNVIEFPYKNLPIEDITNSTLVTTNVTWGIQPAPMPV
chain 2: GCALGGAETCEDCLLIGPQCAWCAQENFTHPSGVGERCDTPANLLAKGCQLNFIENPVSQVEILKNKPLSVGRQKNSSDIVQIAPQSLILKLRPGGAQTLQVHVRQTEDYPVDLYYLMDLSASMDDDLNTIKELGSRLSKEMSKLTSNFRLGFGSFVEKPVSPFVKTTPEEIANPCSSIPYFCLPTFGFKHILPLTNDAERFNEIVKNQKISANIDTPEGGFDAIMQAAVCKEKIGWRNDSLHLLVFVSDADSHFGMDSKLAGIVIPNDGLCHLDSKNEYSMSTVLEYPTIGQLIDKLVQNNVLLIFAVTQEQVHLYENYAKLIPGATVGLLQKDSGNILQLIISAYEELRSEVELEVLGDTEGLNLSFTAICNNGTLFQHQKKCSHMKVGDTASFSVTVNIPHCERRSRHIIIKPVGLGDALELLVSPECNCDCQKEVEVNSSKCHHGNGSFQCGVCACHPGHMGPRCECGEDMLSTDSCKEAPDHPSCSGRGDCYCGQCICHLSPYGNIYGPYCQCDNFSCVRHKGLLCGGNGDCDCGECVCRSGWTGEYCNCTTSTDSCVSEDGVLCSGRGDCVCGKCVCTNPGASGPTCERCPTCGDPCNSKRSCIECHLSAAGQAREECVDKCKLAGATISEEEDFSKDGSVSCSLQGENECLITFLITTDNEGKTIIHSINEKDCPKPPNIP
With B2, binding in the assay with pro-TGF-β3 peptide [2] was put at a Kd of 12 nM. In other words, the double-digit nanomolar range.

One may read the Kd as the constant that tells how readily two partners part at equilibrium. Read a low Kd as tighter binding.

The values are drawn from article PMC6889490, “General structural features that regulate integrin affinity revealed by atypical αVβ8” (Nature Communications, 2019).
